Among the data in US7390643B2, “Geranyl diphosphate synthase molecules, and nucleic acid molecules encoding same” (Washington State University Research Foundation, priority 2002, dated 2008) are Km and kcat values, retold here.

Where “and” joins values, the source holds several entries; their conditions need not be identical. Equal values may be shown once.

The test system of data set [1] is CC(C)=CCOP(=O)(O)OP(=O)(O)O. Kind of data set: purified protein, by the assay type. To be noted: other: apparent; at saturating concentrations of IPP (212 mM [sic]); means ± SD of three determinations; 70.0 °C.
Method: (§1) The assay procedures and methods for product analysis were similar to those previously described (C. Burke and R. Croteau, J. Biol. Chem. 277:3141-3149, 2002), except that for radio-GC a Raga (Raytest) radio-detector connected in-line to a Series 600 (Gow-Mac) chromatograph was employed with a 5% phenyl polysiloxane (ZB-5; Phenomenex) capillary column under hydrogen gas flow (70° C. for 5 min. followed by an 8° C. per min. ramp to 240° C. for 5 min).
(§2) Molecular weight determination and kinetic evaluation. […] For kinetic evaluation, the standard prenyltransferase assay was performed (C. Burke and R. Croteau, J. Biol. Chem. 277:3141-3149, 2002) but the reaction was terminated after 4 min. to ensure linearity in the rate measurements.
(§3) Kinetic characterization of the GPP synthases (SEQ ID NOS:12, 16, and 20).
Data set [2] relates to C=C(C)CCO[P@@](=O)(O)OP(=O)(O)O. Description: purified protein, by the assay type. The following applies: 70.0 °C; for kcat: other: IPP and DMAPP as co-substrates, MgCl2 cofactor; for Km: other: apparent, at saturating concentrations of DMAPP (350 mM [sic]), means ± SD of three determinations.
Method: as §1, §2, §3

In general, Km refers to the concentration of substrate that gives half-maximal velocity. The kcat is the maximal rate divided by the concentration of active sites. As to “Grand fir (Abies grandis) geranyl diphosphate synthase AgGPPS3, N-terminally truncated (E92M), C-terminal His6 tag, SEQ ID NO: 20 (Abies grandis; E92M)”, the Km in data set [1] is 82 ± 5 µM. In data set [2], the kcat is 0.47 s⁻¹ and 0.5 ± 0.1 s⁻¹; the Km came to 44 ± 7 µM.

Turning to “Grand fir (Abies grandis) geranyl diphosphate synthase AgGPPS2, N-terminally truncated (E86M), C-terminal His6 tag, SEQ ID NO: 12 (Abies grandis; E86M)”, in data set [1], the Km amounted to 90 ± 1 µM. In data set [2], the kcat is 1.8 s⁻¹ and the Km was found to be 55 ± 4 µM.

As to “Grand fir (Abies grandis) geranyl diphosphate synthase AgGPPS1, N-terminally truncated (E88M), C-terminal His6 tag, SEQ ID NO: 16 (Abies grandis; E88M)”, the Km in data set [1] was determined as 163 ± 13 µM. Moreover, in data set [2], the kcat was found to be 1.6 s⁻¹ and the Km worked out at 44 ± 5 µM.
